Laboratory results published in the domain aggregation screens of Martell et al. (2025).

assay: soluble fraction after stress (log2 fold change); higher = more stays soluble; pooled small domains, quantitative proteomics; conditions: stress: 50 degC
Procedure, shortened: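 Quantitative proteomics served as the high-throughput read-out for pooled custom libraries of small protein domains. Each was stressed at 50°C. Aggregation propensity is expressed as the base-two log fold change in soluble protein after stress. A higher value means a larger share of the protein remains in solution.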

Row | Sequence | soluble fraction (log2)
1 | HMTPVSQIATKDIEEKIDSLSDEYKDPFILHFKGFKYKEIADQLDIPIGTVKSRIFIARKKLIDLLPDY | -0.115
2 | HMTTVRLNATVPPELALQRLDRVARELFPEYSRNRLQQWIRSGELLVNGSPSGVRDKVPLGAELAVAANLE | -0.416
3 | HMPTPASGSSGYINATNVNFRTGPATSYKSISKLAKNTAVTILGTSGNWYKVTVGSLGKNGYVFATYVTVS | -0.556
4 | HMNKKEIISVLEKIIPPSQIKNINIFGSELVIDLNIDNPSLHAKKKLEKSIMSSFDENLKIIVNFSVE | -0.00924
5 | HMPEPAPALPAKTRVSIRRETGGIIWHEGAWTISPPIRAYDGRWYVAVTTARKGIEFVPVSSVIRS | -1.07
6 | HMNEKMKEIGLRIKELRELSDISAQGMADHLKIPLETYQEYEDGKKDIPASILFEISQKMEVDMGLLLTGE | -0.0988
7 | HMADKNIIGVLSAADNLGKVRITTANGEKYIITVPDGLSDIVKTYWEEEVSVKYVIEKRRKILVDIDG | -1.67
8 | HMFEYDEIMEQSVPKIAWGSLLTIMKKASSHKEMLWYINETYKNGWSRSMVLNQIAMASYERSLIE | -0.851
9 | HMENSMDTDWDVSGVDPSQYRLLFSTLGAIAGVKDVGLNPDGLKIIHTPEALPAIKQAFDANNLKLKMRTN | 0.163
10 | HMPYHSEAWHKVMKSHWLTLSREEAYMHEGRTGASTINIVFQRELGREATQEEIESIYQEKSVLFNSYP | -1.46
11 | HMDNVLGKSGKVIFVNEEINSYGRAFIPGHGEWNIRTKSDQNIHINDGIKVIERDGITLVVEL | -1.14
12 | HMGANAVAAFTARVRTGPSTGYPVRISVPQGRQVRVISGPYGGWYRVSYQGLTGYTYGGLLRQG | -0.408
13 | HMDPEQLKIAINTKMPFGKYSGRPLLLLPEPYLVWFKQQGFPDSKLGSQLAMMYEVKLNGLEQMLMPLL | -0.673
14 | HMAVTNLTAKQISDTRWRVTWDSTLASPTYYVYRDGLLMMQTRQELYEFDAARGEQVQIDVLDDMAAAPAE | -0.741
15 | HMDIVEIYVGEEDGERIDSYLAQELNNVSRSYVQGLIKNQLITVNGNHVKPKHIVKEGEHIIVNIPPPKV | 0.24
16 | HMASGLITEEQAKSKALAHAGLSASQVNFIWVKQDWEDGRRVYEVEFYTDDYQEYDYEIDARTGEILSFDY | -1.97
17 | HMAATGPLTPREAEIARLAAGHLSNRQIAEQLVVSERTVENHLYRIFIKLAVTGRDDLAAALAATEQ | -0.689
18 | HMEEPFRIEKKGDIYYISGKTVERLVAMTDLDNDSAVKRLQRTLKRMGVEDALREHGINPGDTVVIGNYEF | -0.0245
19 | HMERDIATKHEVNRTVEAYSDIVKTLNLPSHKINLVEISFFNILKRSKPSPRENSILLGLAQKIKLHLEKK | -0.477
20 | HMSKQDRRIRRTRRLLKESLIQLMQEKEFMNISVREVTERADLNRGTFYLHYQDTRHLLQDIENETL | -3.25
21 | HMSYQADEIKEKLIDILQNQKTGLSGLEISERIGINRITMTKYLQVFAAEGFIKQKNIGNVIIWFIEDGTE | -0.181
22 | HMKNIRKQAIEAIDRIKNGNPIVISKNAKLIFKNIAKEANVSPTELHREFRDVMLYVNSLKAP | -0.255
23 | HMSSYTQEDVRSGILYMAQLKPRNIEEFVSTLAFSKDDIMDNLSFLVDEGFLKFDADTDTYFNPVPL | -0.214
24 | HMGIRQGKVTSTFVNVRSGASTANAKVGELHKGDVVSLIEKVANFWRIGPGQFVSADYIQVLAS | -0.508
25 | HMGLIAPMPGQIRSVAVSVGDVVKKGQTLLTMEAMKMEIRIQALKDGRVTALHAAQGQTVEGEQILIEVE | -0.000533

Row | Sequence | soluble fraction (log2)
26 | HMTNIDRLIGQTAIVKETINNKKEQGVVRINGMDWTARTEEIDEVILKGKPVEILDIQGIKLIVRKK | -0.153
27 | HMVTVNAFGKSGPEPAAMTKEALAKGADEVRVIVDSPTAAASVRDFLIGAGLRVQLQDDEGQLIVVGEKK | 0.215
28 | HMSLYGGYEIDIIKEEVVDAGIKLLRRRVIVADQRGISVYEGKPTFASDDQVLIKEGQYQIDKLG | -2.63
29 | HMFPDLTGDELRIVDLLNTANDLQVNIITAKTNLPISRVTSLLFQLEMKGVVKPLAGGMYHLLG | -1.31
30 | HMDQHERQQLLIHIAGGEREALAELYQRTRSAVYGLALSYLKNAHDAQDLTRDVYVQVWDRA | 0.344
31 | HMTGIQDVPALETRRVGNTFFFDRATDVQVYDLQGRLLQQARKVTSVSIGHLQQGVYVLTDGRASVKVQ | -1.23
32 | HMSPRADRSVNLDVGETVQIDDWGADGTAQIRYRGAPWTAVLRPGHTPHPGPHRVIELVGSRLLVEP | -0.0121
33 | HMVLSKGAKELLDFIMREGEVTTSKVVQKFGGSAQNASAKLKKLYATGLILGSKAVAESGGLEFVYKA | 0.393
34 | HMKKYLTETEAAAYLNMPVEEIKAAITKGEIEQYVKTSSGYTISVEELDKFFGQKAYDTMTSNNS | 0.174
35 | HMADIWDLLRSEYKLTETDVRMLTDMLPDELMNDFRSEVLALRDRMNRYKVNNPKSYVVTSLKNFIIQHTP | -0.263
36 | HMAFAQMAQEAAKGKDDFNDLRQEMEAVIKEQPHILLMAQFGQNPYEIAYQEAKRRKAQDQQQQQ | 0.288
37 | HMPKLVGEVMQTLDALRREKGLSLLLVEQNARAALGVVDRVYVLERGRVVFEGSAKEAMEDQDVMEFYLG | 0.0385
38 | HMIDHLPPQRAAVLAFLQRELVAGRSPSLAEIALAFGFASRNAAQKHVQALVADGLLEQATGRSRGLRLPG | -1.67
39 | HMKITAPLPGTITEIKVKVGDTVKNGDTVVVLEAMKMQNNIEAESNGTVTAIFVNKGDTVMEGDALMTI | 0.14
40 | HMIVMPELRGKDLKEAERLLSSHNLRYELVDSVYDKSLAPGVVVEMVPQSGNTVKPGRIIFLSINA | -0.878
41 | HMSMTLSVLDDVRGLSESRRKQLFHSFGSIKKLREQSKETLMSIPYLPEKVALELYDKLHEE | -0.218
42 | HMNSKMTYSELVTNITNKEVESIKISSTGSTASVKLKNSKSEKEVNIPSLDSFMSYTEEYLKTGDFTLDEE | -0.144
43 | HMVFRFELQPSSATPLYRQIVEQVTRAVAAGVLRDGEELPSVRAVAQEYVINPMTVSKAYSLLEAQSI | -0.349
44 | HMHPKTPDELLALMSEEQRGQIEQLAKLVLMAVSYSGASYYDAVTTMYPRMSEERRRIITHVLNTASP | -0.652
45 | HMDRVDGWLHDGKLYLRVVDYKTGKKSFDLAELRYGLGLQMLLYLFTLKEEGQMLFGGHEIVPAGVL | -0.391
46 | HMAPELSGEKLWDAQDVAMFLRVKPTTVWSYVSRDGFPAPVSQAGRAGMWSEPLVVQWYLSRPG | -0.223
47 | HMNGEDVTDAIRLPQISQYASVVSAYPGVRAFLLEMQRDFARKGSVIMDGRDIGTVVLPEAEVKIFLT | -0.025
48 | HMSIESPEEFNAKFPPGSEIYATNIQKNAIVQSPANAKGDVEILANSMRLTINFRFISKRDT | 0.0469
49 | HMTQFSASSERAGAGGAYRTTLRAMEQNGDLLQISILLPDAVTAKHAATVWPERAQAIYTAILSELLK | -0.446
50 | HMANSLLVTAQAGGQKLFNFLKRSLHAENNEIHRWIRTGQVRINKKRTKAFDIVHENDEIRIPPFALNR | -0.284
